# Numbering of substitutions follows the chain as printed.
# T1: GST-CT (GST-fused CT domain of Girdin)
# T1 sequence: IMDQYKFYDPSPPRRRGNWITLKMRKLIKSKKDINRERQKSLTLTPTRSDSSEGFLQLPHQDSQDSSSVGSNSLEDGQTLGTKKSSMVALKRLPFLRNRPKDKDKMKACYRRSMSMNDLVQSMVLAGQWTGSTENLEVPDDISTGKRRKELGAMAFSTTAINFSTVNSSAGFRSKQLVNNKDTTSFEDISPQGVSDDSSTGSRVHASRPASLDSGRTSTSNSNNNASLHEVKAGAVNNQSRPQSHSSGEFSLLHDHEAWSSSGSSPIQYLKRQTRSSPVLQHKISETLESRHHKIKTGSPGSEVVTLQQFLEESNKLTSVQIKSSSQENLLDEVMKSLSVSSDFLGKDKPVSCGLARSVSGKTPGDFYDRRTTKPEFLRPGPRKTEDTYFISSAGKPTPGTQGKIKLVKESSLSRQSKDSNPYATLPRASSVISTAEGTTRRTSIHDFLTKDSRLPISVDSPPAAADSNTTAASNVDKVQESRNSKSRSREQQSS
# T2: Girdin CT-V5 SA mutant (serine 1416 replaced with alanine)
# T2 sequence: T1 sequence with S41A
# T3: Girdin CT-V5 wild type (WT)
# T3 sequence: T1 sequence
# T4: V5 epitope-tagged NT domain of Girdin (NT-V5)
# T4 sequence: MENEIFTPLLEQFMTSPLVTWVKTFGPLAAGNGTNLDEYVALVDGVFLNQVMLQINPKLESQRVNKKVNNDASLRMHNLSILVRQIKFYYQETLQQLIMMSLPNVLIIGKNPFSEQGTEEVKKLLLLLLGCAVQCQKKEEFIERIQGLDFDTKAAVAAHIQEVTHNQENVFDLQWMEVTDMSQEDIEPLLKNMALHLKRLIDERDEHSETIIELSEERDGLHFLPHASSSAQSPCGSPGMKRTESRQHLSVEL
# T5: coiled-coil domain of Girdin tagged with V5
# T5 sequence: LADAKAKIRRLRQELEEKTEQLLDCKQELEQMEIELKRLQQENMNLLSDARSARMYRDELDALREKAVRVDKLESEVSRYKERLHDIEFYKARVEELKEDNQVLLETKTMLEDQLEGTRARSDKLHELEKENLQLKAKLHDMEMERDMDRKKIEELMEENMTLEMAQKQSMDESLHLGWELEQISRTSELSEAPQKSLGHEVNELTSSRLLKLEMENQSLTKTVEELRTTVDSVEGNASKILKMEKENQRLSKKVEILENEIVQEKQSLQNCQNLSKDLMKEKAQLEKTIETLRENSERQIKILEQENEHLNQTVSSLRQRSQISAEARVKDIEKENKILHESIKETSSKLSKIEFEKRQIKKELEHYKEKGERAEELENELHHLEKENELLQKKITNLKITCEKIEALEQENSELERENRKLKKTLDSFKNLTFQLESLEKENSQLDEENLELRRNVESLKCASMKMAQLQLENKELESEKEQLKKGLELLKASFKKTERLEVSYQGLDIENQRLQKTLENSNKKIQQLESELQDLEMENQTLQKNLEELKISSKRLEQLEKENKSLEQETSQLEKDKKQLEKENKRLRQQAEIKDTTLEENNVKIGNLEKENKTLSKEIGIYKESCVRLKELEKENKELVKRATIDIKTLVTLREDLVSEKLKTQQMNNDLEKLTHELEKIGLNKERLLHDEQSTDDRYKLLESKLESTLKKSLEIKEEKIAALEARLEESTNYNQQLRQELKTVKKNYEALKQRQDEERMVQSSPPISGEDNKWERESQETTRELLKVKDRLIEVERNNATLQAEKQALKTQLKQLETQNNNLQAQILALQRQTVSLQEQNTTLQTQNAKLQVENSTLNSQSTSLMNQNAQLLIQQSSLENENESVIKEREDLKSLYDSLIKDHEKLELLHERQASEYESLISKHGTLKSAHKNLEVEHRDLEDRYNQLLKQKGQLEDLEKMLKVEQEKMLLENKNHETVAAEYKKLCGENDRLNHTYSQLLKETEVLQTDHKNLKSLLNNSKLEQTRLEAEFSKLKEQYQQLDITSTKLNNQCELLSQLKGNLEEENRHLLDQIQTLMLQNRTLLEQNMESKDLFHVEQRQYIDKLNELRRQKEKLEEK
# B1: CT domain of Girdin (expressed in cells, oligomerisation test) (other)
# chain: T1 sequence
# What was measured:
# [1] = target: F-actin (filamentous actin); assay: actin cosedimentation, 1 µM GST-CT2 with 0-2.5 µM F-actin, Scatchard analysis
# [2] = test system: T1, GST-CT (GST-fused CT domain of Girdin)
# [3] = test system: T2, Girdin CT-V5 SA mutant (serine 1416 replaced with alanine)
# [4] = test system: T3, Girdin CT-V5 wild type (WT)
# [5] = test system: T4, V5 epitope-tagged NT domain of Girdin (NT-V5)
# [6] = test system: T5, coiled-coil domain of Girdin tagged with V5
# [7] = target: the molecule itself; assay: expression in COS7 cells, coimmunoprecipitation (data not shown)
molecule,measurement,setting,value
glutathione S-transferase (GST)-fused CT2 of Girdin (GST-CT2) (from UniProt Q3V6T2 1624-1871),Kd,[1],1030 nM
recombinant active Akt (Upstate),in vitro kinase assay (phosphorylation detected by anti-P-Girdin antibody),[2],Purified GST-CT was effectively phosphorylated by Akt in vitro
same,"in vitro kinase assay (phosphorylation, autoradiography)",[3],"but not its Ser-1416 substituted with Ala mutant (SA), was phosphorylated by active Akt"
same,"in vitro kinase assay (phosphorylation, autoradiography)",[4],Girdin CT wild type (WT) ... was phosphorylated by active Akt
same,"in vitro kinase assay (phosphorylation, autoradiography)",[5],neither the NT nor the coiled-coil domain of Girdin was phosphorylated by Akt in vitro
same,"in vitro kinase assay (phosphorylation, autoradiography)",[6],neither the NT nor the coiled-coil domain of Girdin was phosphorylated by Akt in vitro
B1,binding result,[7],no binding

# — patent US20160041176A1 (NATIONAL UNIVERSITY CORPORATION NAGOYA UNIVERSITY, published 2016)
